Measured values from patent US10772928B2, “Modulation and detection of a neuronal alternative splicing regulatory network for treatment and diagnosis of neurological disorders” (The Governing Council of the University of Toronto, priority 2014, dated 2020).

T1: nSR100 (Mus musculus, UniProt Q8BKA3)
T1 construct: host or cells: mouse N2A cells
T1 sequence (Q8BKA3 1-608): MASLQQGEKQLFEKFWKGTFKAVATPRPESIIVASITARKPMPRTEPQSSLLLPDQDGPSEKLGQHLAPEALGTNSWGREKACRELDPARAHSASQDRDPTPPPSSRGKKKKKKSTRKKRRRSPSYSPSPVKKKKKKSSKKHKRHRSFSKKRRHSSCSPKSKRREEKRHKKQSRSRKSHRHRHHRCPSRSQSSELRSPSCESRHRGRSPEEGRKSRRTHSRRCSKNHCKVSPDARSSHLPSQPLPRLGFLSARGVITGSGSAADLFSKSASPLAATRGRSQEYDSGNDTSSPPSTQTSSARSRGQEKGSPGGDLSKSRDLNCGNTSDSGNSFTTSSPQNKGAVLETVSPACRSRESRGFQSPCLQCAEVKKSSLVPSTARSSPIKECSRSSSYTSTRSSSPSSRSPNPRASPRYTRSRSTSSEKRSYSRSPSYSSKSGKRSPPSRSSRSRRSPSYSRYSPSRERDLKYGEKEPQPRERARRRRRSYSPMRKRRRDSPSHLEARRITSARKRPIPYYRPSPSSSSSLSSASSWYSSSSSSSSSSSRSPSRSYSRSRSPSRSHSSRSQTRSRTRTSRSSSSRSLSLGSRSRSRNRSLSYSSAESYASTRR

B1: Crnkl1 (protein, UniProt P63154 1-690, looked up)
Crooked neck-like protein 1: MAASTAAGKQRIPKVAKVKNKAPAEVQITAEQLLREAKERELELLPPPPQQKITDEEELNDYKLRKRKTFEDNIRKNRTVISNWIKYAQWEESLKEIQRARSIYERALDVDYRNITLWLKYAEMEMKNRQVNHARNIWDRAITTLPRVNQFWYKYTYMEEMLGNVAGARQVFERWMEWQPEEQAWHSYINFELRYKEVERARTIYERFVLVHPAVKNWIKYARFEEKHAYFAHARKVYERAVEFFGDEHMDEHLYVAFAKFEENQKEFERVRVIYKYALDRISKQEAQELFKNYTIFEKKFGDRRGIEDIIVSKRRFQYEEEVKANPHNYDAWFDYLRLVESDAEADTVREVYERAIANVPPIQEKRHWKRYIYLWVNYALYEELEAKDPERTRQVYQASLELIPHKKFTFAKMWLYYAQFEIRQKNLPFARRALGTSIGKCPKNKLFKGYIELELQLREFDRCRKLYEKFLEFGPENCTSWIKFAELETILGDIERARAIYELAISQPRLDMPEVLWKSYIDFEIEQEETERTRNLYRQLLQRTQHVKVWISFAQFELSSGKEGSVAKCRQIYEEANKTMRNCEEKEERLMLLESWRSFEDEFGTVSDKERVDKLMPEKVKKRRKVQADDGSDAGWEEYYDYIFPEDAANQPNLKLLAMAKLWKKQQQEREAAEQDPDKDIDESESSSF
B2: Prpf19 (protein, UniProt Q99KP6 2-504, looked up)
Pre-mRNA-processing factor 19: SLICSISNEVPEHPCVSPVSNHVYERRLIEKYIAENGTDPINNQPLSEEQLIDIKVAHPIRPKPPSATSIPAILKALQDEWDAVMLHSFTLRQQLQTTRQELSHALYQHDAACRVIARLTKEVTAAREALATLKPQAGLIVPQAVPSSQPSVVGAGEPMDLGELVGMTPEIIQKLQDKATVLTTERKKRGKTVPEELVKPEELSKYRQVASHVGLHSASIPGILALDLCPSDTNKILTGGADKNVVVFDKSTEQILATLKGHTKKVTSVVFHPSQELVFSASPDATIRIWSVPNTSCVQVVRAHESAVTGLSLHATGDYLLSSSDDQYWAFSDIQTGRVLTKVTDETSGCSLTCAQFHPDGLIFGTGTMDSQIKIWDLKERTNVANFPGHSGPITSIAFSENGYYLATAADDSSVKLWDLRKLKNFKTLQLDNNFEVKSLIFDQSGTYLALGGTDVQIYICKQWTEILHFTEHSGLTTGVAFGHHAKFIASTGMDRSLKFYSL
B3: Csnk1e (protein, UniProt Q9JMK2 1-416, looked up)
Casein kinase I isoform …: MELRVGNKYRLGRKIGSGSFGDIYLGANIASGEEVAIKLECVKTKHPQLHIESKFYKMMQGGVGIPSIKWCGAEGDYNVMVMELLGPSLEDLFNFCSRKFSLKTVLLLADQMISRIEYIHSKNFIHRDVKPDNFLMGLGKKGNLVYIIDFGLAKKYRDARTHQHIPYRENKNLTGTARYASINTHLGIEQSRRDDLESLGYVLMYFNLGSLPWQGLKAATKRQKYERISEKKMSTPIEVLCKGYPSEFSTYLNFCRSLRFDDKPDYSYLRQLFRNLFHRQGFSYDYVFDWNMLKFGAARNPEDVDRERREHEREERMGQLRGSATRALPPGPPTGATANRLRSAAEPVASTPASRIQQTGNTSPRAISRADRERKVSMRLHRGAPANVSSSDLTGRQEVSRLAASQTSVPFDHLGK
B4: Smc3 (protein, UniProt Q9CW03 1-1217, looked up)
Structural maintenance of …: MYIKQVIIQGFRSYRDQTIVDPFSSKHNVIVGRNGSGKSNFFYAIQFVLSDEFSHLRPEQRLALLHEGTGPRVISAFVEIIFDNSDNRLPIDKEEVSLRRVIGAKKDQYFLDKKMVTKNDVMNLLESAGFSRSNPYYIVKQGKINQMATAPDSQRLKLLREVAGTRVYDERKEESISLMKETEGKREKINELLKYIEERLHTLEEEKEELAQYQKWDKMRRALEYTIYNQELNETRAKLDELSAKRETSGEKSRQLRDAQQDARDKMEDIERQVRELKTKISAMKEEKEQLSAERQEQIKQRTKLELKAKDLQDELAGNSEQRKRLLKERQKLLEKIEEKQKELAETEPKFNSVKEKEERGIARLAQATQERTDLYAKQGRGSQFTSKEERDKWIKKELKSLDQAINDKKRQIAAIHKDLEDTEANKEKNLEQYNKLDQDLNEVKARVEELDRKYYEVKNKKDELQSERNYLWREENAEQQALAAKREDLEKKQQLLRAATGKAILNGIDSINKVLEHFRRKGINQHVQNGYHGIVMNNFECEPAFYTCVEVTAGNRLFYHIVDSDEVSTKILMEFNKMNLPGEVTFLPLNKLDVRDTAYPETNDAIPMISKLRYNPRFDKAFKHVFGKTLICRSMEVSTQLARAFTMDCITLEGDQVSHRGALTGGYYDTRKSRLELQKDVRKAEEELGELEAKLNENLRRNIERINNEIDQLMNQMQQIETQQRKFKASRDSILSEMKMLKEKRQQSEKTFMPKQRSLQSLEASLHAMESTRESLKAELGTDLLSQLSLEDQKRVDALNDEIRQLQQENRQLLNERIKLEGIITRVETYLNENLRKRLDQVEQELNELRETEGGTVLTATTSELEAINKRVKDTMARSEDLDNSIDKTEAGIKELQKSMERWKNMEKEHMDAINHDTKELEKMTNRQGMLLKKKEECMKKIRELGSLPQEAFEKYQTLSLKQLFRKLEQCNTELKKYSHVNKKALDQFVNFSEQKEKLIKRQEELDRGYKSIMELMNVLELRKYEAIQLTFKQVSKNFSEVFQKLVPGGKATLVMKKGDVEGSQSQDEGEGSGESERGSGSQSSVPSVDQFTGVGIRVSFTGKQGEMREMQQLSGGQKSLVALALIFAIQKCDPAPFYLFDEIDQALDAQHRKAVSDMIMELAVHAQFITTTFRPELLESADKFYGVKFRNKVSHIDVITAEMAKDFVEDDTTHG

Biological target: T1, nSR100
Test: AP-MS nSR100 interaction partners from mouse N2A cells (Table 5)
Assay type: binding
Settings: bait Srrm4
From the text: By applying affinity purification coupled to mass-spectrometry (AP-MS), several interaction nSR100 partner proteins were detected that provide insight into mechanisms of post-translational regulation of nSR100 levels.

Molecule	AvgP (average of the SAINT scores)	MaxP (maximal SAINT score)
B1	0.95	0.95
B2	0.91	1
B3	0.91	0.96
B4	0.91	0.96

Same assay, conditions: bait Srrm4, 0.1 added to prevent division by 0

Molecule	FoldChange between the prey Avg spectra of the bait and control purifications
B1	20
B2	5.71
B3	7
B4	7

Same assay, conditions: bait Srrm4, 2 replicates

Molecule	AvgSpec (average number of spectra per replicate)
B1	2
B2	20
B3	7
B4	7

Same assay, conditions: bait Srrm4, biological replicate 1 (first number of the cell), AP-MS

Molecule	Spectra (number of spectra for the prey in the purification of the bait)
B1	2|2
B2	11
B3	6
B4	6

Same assay, conditions: bait Srrm4, biological replicate 2 (second number of the cell), AP-MS

Molecule	Spectra (number of spectra for the prey in the purification of the bait)
B1	2|2
B2	29
B3	8
B4	8

Same assay, conditions: bait Srrm4, sum of spectra over 2 replicates

Molecule	SpecSum
B1	4
B2	40
B3	14
B4	14
